Target: GST-Dpn bHLH (UniProt Q26263 1-108)
Assay: EMSA

Chain of GST-Dpn bHLH (Q26263 1-108): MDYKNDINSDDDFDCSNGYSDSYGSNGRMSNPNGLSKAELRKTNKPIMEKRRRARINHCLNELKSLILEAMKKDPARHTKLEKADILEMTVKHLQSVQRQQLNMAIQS

Binder	binding result
3Cm (dsDNA) DNA 1: GATCCCTGGCACCCTTCCTGATC DNA 2: GATCAGGAAGGGTGCCAGGGATC	no binding
(1+2)m (dsDNA) DNA 1: GATCTTAGGTAGCCCCCGGGACTGGCACAGGCACCTTGATC DNA 2: GATCAAGGTGCCTGTGCCAGTCCCGGGGGCTACCTAAGATC	no binding
4Cm (dsDNA) DNA 1: GATCTTGCCAAGCTCCACGATC DNA 2: GATCGTGGAGCTTGGCAAGATC	no binding
